The values that follow come from paper PMC11811016 (Nature Communications, 2025).

This experiment has as its target T1, recombinant his-PGC-1α (mouse, UniProt O70343 1-797, labeled with red-tris-NTA 2nd generation His-tag labeling kit).
T1 sequence (looked up): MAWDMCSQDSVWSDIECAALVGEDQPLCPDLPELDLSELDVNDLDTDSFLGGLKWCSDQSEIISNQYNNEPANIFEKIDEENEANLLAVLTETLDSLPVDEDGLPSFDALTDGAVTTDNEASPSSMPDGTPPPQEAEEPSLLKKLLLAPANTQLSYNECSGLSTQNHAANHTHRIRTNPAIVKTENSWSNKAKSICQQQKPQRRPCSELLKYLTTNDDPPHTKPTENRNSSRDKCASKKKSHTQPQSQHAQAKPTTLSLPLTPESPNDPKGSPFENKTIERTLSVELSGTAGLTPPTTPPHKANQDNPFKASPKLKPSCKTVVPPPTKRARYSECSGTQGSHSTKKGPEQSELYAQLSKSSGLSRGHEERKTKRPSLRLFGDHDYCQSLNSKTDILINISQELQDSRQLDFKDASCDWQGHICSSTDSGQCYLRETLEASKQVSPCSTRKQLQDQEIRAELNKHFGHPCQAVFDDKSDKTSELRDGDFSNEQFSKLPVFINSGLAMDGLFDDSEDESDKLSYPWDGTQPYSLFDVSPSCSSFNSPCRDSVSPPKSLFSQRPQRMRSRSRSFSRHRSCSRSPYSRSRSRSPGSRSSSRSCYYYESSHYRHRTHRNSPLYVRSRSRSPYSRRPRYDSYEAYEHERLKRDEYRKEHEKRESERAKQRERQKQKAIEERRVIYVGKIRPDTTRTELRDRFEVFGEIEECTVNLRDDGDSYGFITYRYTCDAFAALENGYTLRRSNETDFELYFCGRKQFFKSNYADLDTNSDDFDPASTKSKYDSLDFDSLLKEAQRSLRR
The experiment is described as follows: MST.

B1: purified KMT5C protein (his tag cleaved) (enzyme)
chain: not shown
As usually defined, the Kd is the free concentration of one partner at which half of the binding sites on the other are occupied at equilibrium, for simple one-to-one binding. For B1, the Kd came out at 1730 nM.
